In test [1] the target is T1, hIL2Rβ/γ on CD25-knockout NK-92 cells (human, UniProt P14784 27-551; P31785 23-369).
T1 sequence (looked up) 1: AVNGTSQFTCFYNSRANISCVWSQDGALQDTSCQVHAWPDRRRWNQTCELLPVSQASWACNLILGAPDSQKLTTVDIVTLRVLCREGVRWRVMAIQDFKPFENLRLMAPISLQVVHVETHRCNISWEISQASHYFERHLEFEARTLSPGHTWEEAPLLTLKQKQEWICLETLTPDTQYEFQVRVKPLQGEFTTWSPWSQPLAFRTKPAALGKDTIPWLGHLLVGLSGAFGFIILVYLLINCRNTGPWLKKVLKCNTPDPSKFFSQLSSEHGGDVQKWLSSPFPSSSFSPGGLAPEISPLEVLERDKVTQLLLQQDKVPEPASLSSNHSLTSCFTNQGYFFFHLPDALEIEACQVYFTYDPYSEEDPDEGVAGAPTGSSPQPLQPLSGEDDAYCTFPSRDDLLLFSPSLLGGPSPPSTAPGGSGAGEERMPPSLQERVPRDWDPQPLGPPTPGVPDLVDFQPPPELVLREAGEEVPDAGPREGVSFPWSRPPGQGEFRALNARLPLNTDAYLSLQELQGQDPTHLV
T1 sequence (looked up) 2: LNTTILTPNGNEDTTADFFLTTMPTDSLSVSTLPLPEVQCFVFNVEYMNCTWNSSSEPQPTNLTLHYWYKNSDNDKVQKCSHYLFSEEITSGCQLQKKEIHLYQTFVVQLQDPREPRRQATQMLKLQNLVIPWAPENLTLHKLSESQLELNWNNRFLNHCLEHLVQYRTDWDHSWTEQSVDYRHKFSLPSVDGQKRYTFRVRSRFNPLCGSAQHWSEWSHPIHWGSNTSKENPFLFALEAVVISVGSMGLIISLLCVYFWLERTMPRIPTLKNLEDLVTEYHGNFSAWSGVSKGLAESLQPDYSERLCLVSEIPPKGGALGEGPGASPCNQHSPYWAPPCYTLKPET
The test is described as follows: cell-based or functional assay.

Test [2] has as its target T2, high-affinity IL2R expressed on the surface of CTLL-2 cells.
T2 sequence (P01590 whole entry, species assumed, looked up): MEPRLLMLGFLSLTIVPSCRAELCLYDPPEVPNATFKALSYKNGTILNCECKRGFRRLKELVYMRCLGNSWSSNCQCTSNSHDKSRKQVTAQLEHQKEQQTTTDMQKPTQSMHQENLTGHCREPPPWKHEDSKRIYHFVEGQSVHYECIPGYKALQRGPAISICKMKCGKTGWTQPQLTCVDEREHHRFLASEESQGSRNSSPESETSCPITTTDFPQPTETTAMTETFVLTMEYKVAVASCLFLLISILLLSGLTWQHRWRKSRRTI
T2 sequence (P16297 whole entry, species assumed, looked up): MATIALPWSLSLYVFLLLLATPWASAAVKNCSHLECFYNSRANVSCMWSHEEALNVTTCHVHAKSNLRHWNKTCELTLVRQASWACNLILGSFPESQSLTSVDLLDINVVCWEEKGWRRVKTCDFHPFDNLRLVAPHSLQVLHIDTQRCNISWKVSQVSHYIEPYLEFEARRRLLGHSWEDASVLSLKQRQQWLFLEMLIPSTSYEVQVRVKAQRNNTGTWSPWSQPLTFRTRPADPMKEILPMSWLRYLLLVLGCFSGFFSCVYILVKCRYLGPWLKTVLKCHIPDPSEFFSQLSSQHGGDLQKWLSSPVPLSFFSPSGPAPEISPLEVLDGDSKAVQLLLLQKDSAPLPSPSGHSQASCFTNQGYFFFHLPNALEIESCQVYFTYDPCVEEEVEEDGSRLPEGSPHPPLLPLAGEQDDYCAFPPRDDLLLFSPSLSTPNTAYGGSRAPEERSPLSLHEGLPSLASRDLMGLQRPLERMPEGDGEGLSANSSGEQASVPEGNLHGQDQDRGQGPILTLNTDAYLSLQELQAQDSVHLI
T2 sequence (P34902 whole entry, species assumed, looked up): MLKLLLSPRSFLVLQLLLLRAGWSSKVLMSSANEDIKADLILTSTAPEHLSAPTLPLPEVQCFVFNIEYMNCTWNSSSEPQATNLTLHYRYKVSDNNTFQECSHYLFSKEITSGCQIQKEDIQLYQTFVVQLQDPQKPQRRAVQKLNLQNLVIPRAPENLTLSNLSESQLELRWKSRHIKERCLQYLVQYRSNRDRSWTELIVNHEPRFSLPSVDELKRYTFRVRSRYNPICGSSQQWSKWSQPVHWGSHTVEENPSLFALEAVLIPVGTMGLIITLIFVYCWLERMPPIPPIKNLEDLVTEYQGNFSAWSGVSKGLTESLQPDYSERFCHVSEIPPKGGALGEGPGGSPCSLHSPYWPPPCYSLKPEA
The experiment in a line: cell-based or functional assay.

In test [3] the target is T3, hIL2Rα/β/γ complex (human, UniProt P01589 22-213; P14784 27-239; P31785 23-254).
T3 construct: assembled in the BLI assay from bought subunits; also called hIL2Rα/o/γ complex
T3 sequence (looked up) 1: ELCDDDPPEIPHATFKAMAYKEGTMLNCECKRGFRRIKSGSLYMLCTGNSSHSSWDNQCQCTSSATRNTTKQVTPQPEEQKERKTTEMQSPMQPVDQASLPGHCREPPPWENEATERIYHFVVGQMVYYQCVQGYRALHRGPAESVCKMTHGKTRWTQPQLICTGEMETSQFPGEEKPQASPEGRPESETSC
T3 sequence (looked up) 2: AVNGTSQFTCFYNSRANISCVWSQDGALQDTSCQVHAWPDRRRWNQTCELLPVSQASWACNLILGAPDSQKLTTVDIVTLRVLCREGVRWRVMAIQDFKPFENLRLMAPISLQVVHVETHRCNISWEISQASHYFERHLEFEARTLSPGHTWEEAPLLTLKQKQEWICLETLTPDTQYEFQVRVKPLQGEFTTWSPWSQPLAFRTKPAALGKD
T3 sequence (looked up) 3: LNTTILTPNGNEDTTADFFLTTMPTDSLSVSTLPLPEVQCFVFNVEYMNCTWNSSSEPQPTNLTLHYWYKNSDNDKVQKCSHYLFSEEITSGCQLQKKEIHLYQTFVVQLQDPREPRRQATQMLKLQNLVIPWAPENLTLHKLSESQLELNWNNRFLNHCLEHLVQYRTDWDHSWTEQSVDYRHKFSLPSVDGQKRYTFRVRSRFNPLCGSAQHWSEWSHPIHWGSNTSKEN
The experiment in a line: BLI (ForteBio): biotin-CD25 on an SA sensor, CD122 step, then sample together with CD132.
Experimental: (§1) The specific method was described as follows: biotin-CD25 (Acro) was diluted in 1×PBS to 5 μg/mL and added to a 96-well black-wall plate at 200 μL per well; hIL2Rβ (Acro) was diluted to 5 μg/mL in 1×PBS and also added to the 96-well black-wall plate at 200 μL per well. […] The 96-well black-wall plate containing the testing samples and a SA sensor was uploaded onto the analyzer, and a program was inputted. The SA sensor was firstly immersed into the well with biotin-CD25 (Acro) and then with hIL2Rβ (Acro) till saturation. After that, the sensor was immersed in the testing sample well and the binding signal was recorded in real-time. At the end of each association-dissociation cycle, the sensor was regenerated by immersing in 500 mM phosphate buffer and then started with the next cycle of detection.

In test [4] the target is T2, high-affinity IL2R expressed on the …. The test is described as follows: cell-based or functional assay. The source holds these as a separate data set.
Test [5] has as its target T4, hIL2Rα (hCD25) (human, UniProt P01589 22-213, limits assumed).
T4 construct: bought recombinant protein; also called hCD25 (Acro); biotin-CD25 (Acro)
T4 sequence (looked up): T3 sequence (looked up) 1
The experiment in a line: BLI (ForteBio): biotin-CD25 on an SA sensor, buffer step, then sample.

The target of test [6] is T5, hIL2Rα/β complex (human, UniProt P01589 22-213; P14784 27-239).
T5 construct: assembled in the BLI assay from bought subunits; also called hIL2Rα/O complex
T5 sequence (looked up) 1: T3 sequence (looked up) 1
T5 sequence (looked up) 2: T3 sequence (looked up) 2
The test is described as follows: BLI (ForteBio): biotin-CD25 on an SA sensor, CD122 step, then sample together with CD122. For orientation: BLI is a label-free optical method that tracks binding on a fibre tip over time.
Experimental: as §1

The target of test [7] is FcγRIIIa-158F (UniProt P08637 17-208, limits assumed). The test is described as follows: BLI (ForteBio), series of concentrations, not labelled on the sheet.
Test [8] concerns the target T6, FcγRIIa (UniProt P12318 36-218, limits assumed).
T6 sequence (looked up): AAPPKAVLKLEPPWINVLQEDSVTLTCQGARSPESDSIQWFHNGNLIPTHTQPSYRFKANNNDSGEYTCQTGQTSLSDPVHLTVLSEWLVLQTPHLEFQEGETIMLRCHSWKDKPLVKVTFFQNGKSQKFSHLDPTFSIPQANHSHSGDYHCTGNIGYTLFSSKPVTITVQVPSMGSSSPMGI
Described as above.

The target of test [9] is FcγRI (UniProt P12314 16-288, limits assumed). The description is as above.
The target in test [10] is T5, hIL2Rα/β complex. The test is described as follows: BLI (ForteBio): biotin-CD25 on an SA sensor, CD122 step, then sample (100 nM by the text) together with CD122.
Experimental: as §1
In test [11] the target is T4, hIL2Rα (hCD25). The test is described as follows: BLI (ForteBio): biotin-CD25 on an SA sensor, buffer step, then sample (100 nM by the text).
For test [12], the target named is T3, hIL2Rα/β/γ complex. The test is described as follows: BLI (ForteBio): biotin-CD25 on an SA sensor, CD122 step, then sample (100 nM by the text) together with CD132.
Experimental: as §1

Where a chain is given by its changes, count along the chain named. In names and notes the source's numbering stands. Like-named read-outs stand apart in the source and are kept apart here.

Sequence of FcγRIIIa-158F (P08637 17-208 limits assumed): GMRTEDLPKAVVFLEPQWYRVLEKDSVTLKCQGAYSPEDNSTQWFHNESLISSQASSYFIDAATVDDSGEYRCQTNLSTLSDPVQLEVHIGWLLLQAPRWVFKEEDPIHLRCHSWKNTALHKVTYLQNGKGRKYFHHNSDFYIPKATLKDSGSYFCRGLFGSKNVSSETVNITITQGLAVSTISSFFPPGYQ
Sequence of FcγRI (P12314 16-288 limits assumed): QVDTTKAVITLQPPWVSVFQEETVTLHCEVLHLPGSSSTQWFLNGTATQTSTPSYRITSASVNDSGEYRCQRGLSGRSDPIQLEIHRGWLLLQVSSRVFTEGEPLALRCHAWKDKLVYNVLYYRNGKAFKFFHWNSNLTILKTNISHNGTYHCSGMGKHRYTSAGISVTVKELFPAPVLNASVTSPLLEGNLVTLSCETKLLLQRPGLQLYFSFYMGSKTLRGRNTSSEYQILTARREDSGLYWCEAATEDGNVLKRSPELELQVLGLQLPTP

B1: K2G11-Cy05 (other)
chain: SSSTKKTQLQLEHLLLDLQMILNGINNYKNPKLTRMLTFKFYMPKKATELKHLQCLEEELGPLEEVLNLAQSKNFHLRPRDLISNIRVIVLELKGSETCFMCEYADETATIVEFLNRWITFLQSIISTLTGGGGSGGGGSGGGGSGGGGSQVQLVQSGAEVKKPGATVKISCKVSGDTITAYYMHWVRQAPGQGLEWIGRIDPDDDSTKYAENFKGRVTITADTSTDTAYMELSSLRSEDTAVYYCTTITFLYSRELRWFAYWGQGTLVTVSSASTKGPSVFPLAPSSKSTSGGTAALGCLVKDYFPEPVTVSWNSGALTSGVHTFPAVLQSSGLYSLSSVVTVPSSSLGTQTYICNVDHKPSNTKVDKRVEPKSCDKTHTCPPCPAPEFEGGPSVFLFPPKPKDTLMISRTPEVTCVVVDVSHEDPEVQFNWYVDGVEVHNAKTKPREEQYNSTYRVVSVLTVLHQDWLNGKEYKCKVSNKALPASIEKTISKAKGQPREPQVYTLPPSRDELTKNQVSLTCLVKGFYPSDIAVEWESNGQPENNYKTTPPVLDSDGSFFLYSKLTVDKSRWQEGNVFSCSVMHEALHNHYTQKSLSLSPGK
VL: DIVLTQSPATLSLSPGERATLSCQASQYISNYLSWYQQKPGQAPRLLIYSATSLASGIPARFSGSRCGTDFTLTISSLEPEDFAVYYCLQHYSTPYTFGQGTKLEIK
modifications: Engineered disulfide between chain 1 Cys99 (IL-2 T102C) and chain 2 Cys67 (S67C), as in Table 32 (LC: C67-HC: C99).
notes: hIL2-DM (Δ3, C125L) fused to the heavy chain of K2G11, disulfide IL:102-L:67
For the molecule B1, in [1], the “Activity in Promoting NK-92 (CD25-KO) Cell Proliferation (EC50, nM)” value is 0.065 nM. The entries for the “Activity in Promoting CTLL-2 Cell Proliferation (EC50, nM)” value in [2] and in test [4] were 9.17 nM and 11.2 nM, respectively. Further, the binding result in [3], in test [5] and in test [6] was “no binding” in each case.

B2: K2G11-pITM (antibody)
VH: QVQLVQSGAEVKKPGATVKISCKVSGDTITAYYMHWVRQAPGQGLEWIGRIDPDDDSTKYAENFKGRVTITADTSTDTAYMELSSLRSEDTAVYYCTTITFLYSRELRWFAYWGQGTLVTVSSASTKGPSVFPLAPSSKSTSGGTAALGCLVKDYFPEPVTVSWNSGALTSGVHTFPAVLQSSGLYSLSSVVTVPSSSLGTQTYICNVDHKPSNTKVDKRVEPKSCDKTHTCPPCPAPEFEGGPSVFLFPPKPKDTLMISRTPEVTCVVVDVSHEDPEVQFNWYVDGVEVHNAKTKPREEQYNSTYRVVSVLTVLHQDWLNGKEYKCKVSNKALPASIEKTISKAKGQPREPQVYTLPPSRDELTKNQVSLTCLVKGFYPSDIAVEWESNGQPENNYKTTPPVLDSDGSFFLYSKLTVDKSRWQEGNVFSCSVMHEALHNHYTQKSLSLSPGK
VL: B1 VL with C67S
notes: K2G11 with pI (N203D/K274Q/Q419E) and TM (L234F/L235E/P331S) mutations, EU numbering, in the hIgG1 heavy chain constant region; also called humanized anti-IL-2 antibody K2G11-pITM; copies: 2 + 2
Consider B2, for which the binding result in [7], in test [8] and in test [9] was “no binding (tested: not printed on the sheet)” throughout.

B3: hIL2-DM (Δ3, C125L) (ligand)
chain: SSSTKKTQLQLEHLLLDLQMILNGINNYKNPKLTRMLTFKFYMPKKATELKHLQCLEEELGPLEEVLNLAQSKNFHLRPRDLISNIRVIVLELKGSETTFMCEYADETATIVEFLNRWITFLQSIISTLT
notes: first three N-terminal residues (APT) deleted; also called hIL2-DM (Δ3, 125L); hIL2-DM (Δ3, C125L) mutein
Take B3: the “Activity in Promoting CTLL-2 Cell Proliferation (EC50, nM)” value in test [4] is 0.156 nM. Moreover, the binding result in [10], in test [11] and in [12] was “binds” in each case.

The values above are taken from US20250346644A1 (LATTICON SUZHOU BIOPHARMACEUTICALS, published 2025).
